In the supplement of paper PMC10567573:

B1: FEM1A (parent)
chain: PCCSSSPEEPLNGESYESCCPTSR

Variants of: B1
Assay: protein stability index of a GFP-peptide fusion (GPS, HEK-293T) (PSI 1-6); higher = more stable
Conditions: c terminus: a fixed tail appended
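Note: lentivirally expressed fusions sorted by FACS into six bins by GFP to DsRed ratio, PSI derived from sequencing read proportions per bin multiplied by bin number.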

Protein stability index of substitutions, site by site:
P10: C 3.46; D 4.17; E 3.7; F 3.5; H 3.46; I 3.6; K 3.5; L 3.41; M 3.73; N 2.96; Q 3.65; R 3.82; S 3.91; T 3.1; V 3.73; W 2.25; Y 3.14
L11: A 4.52; C 3.54; D 3.94; E 3.5; F 3.75; G 3.81; H 4.2; I 3.72; K 3.77; M 3.79; N 4.57; P 4.08; Q 3.86; R 3.93; S 3.84; T 4.11; V 4.2; W 2.82; Y 3.55
N12: A 3.71; C 3.43; D 4.86; E 4.42; F 3.01; G 3.88; H 3.48; I 4.22; K 2.97; L 4.04; M 3.98; P 2.66; Q 3.32; R 3.48; S 4.38; T 3.89; V 3.58; W 3.03; Y 3.96
G13: A 4.14; C 3.54; D 4.43; E 5.17; F 3.26; H 4.14; I 3.42; K 4.05; L 3.63; M 3.29; N 3.46; P 4.01; Q 4.43; R 3.96; S 3.75; T 3.75; V 3.51; W 2.79; Y 3.01
E14: A 3.77; C 2.86; D 3.77; F 2.71; G 2.24; H 3.81; I 2.88; K 2.9; L 3.01; M 2.99; N 3.66; P 3.41; Q 3.33; R 3.62; S 3.14; T 2.94; V 2.8; W 2.57; Y 2.41
S15: A 3.98; C 3.47; D 4.61; E 3.61; F 2.63; G 3.88; H 3.92; I 3.66; K 3.68; L 3.07; M 3.12; N 3.62; P 4.14; Q 3.52; R 3.51; T 2.69; V 3.81; W 2.85; Y 3.17
Y16: A 3.55; C 4.27; D 4.57; E 4.69; F 3.97; G 3.9; H 4.59; I 3.73; K 3.68; L 3.84; M 3.83; N 3.97; P 4.61; Q 4.55; R 3.35; S 3.7; T 4.37; V 4.35; W 3.2
E17: A 3.04; C 4.12; D 3.81; F 3.55; G 3.43; H 3.44; I 2.83; K 3.25; L 2.37; M 3.44; N 3.37; P 3.7; R 2.67; S 2.51; T 3.56; V 2.87; W 1.72; Y 2.52
S18: A 4.71; C 4.24; D 4.23; E 4; F 2.89; H 3.74; I 3.03; K 3.64; L 3.01; M 3.06; N 3.68; P 4; Q 4.02; R 3.11; T 4.19; V 3.45; W 2.5; Y 3.07
C19: A 3.94; D 4.5; E 4.54; F 3.76; G 3.61; H 3.57; I 3.72; K 4.25; L 3.28; M 3.49; N 3.67; P 4.08; Q 4.09; R 3.97; S 4.11; T 3.56; V 3.89; W 1.98; Y 3.72
C20: A 3.53; D 4.12; E 4.24; F 2.91; G 3.25; H 3.32; I 3.54; K 3.31; L 3.7; M 3.18; N 4.35; P 3.06; Q 3.54; R 4.08; S 4.14; T 3.91; V 3.47; W 3.69; Y 3.38
P21: A 3.68; C 3.92; D 5; E 4.19; F 3.04; G 3.78; H 3.71; I 2.6; K 3.81; L 3.51; M 2.28; N 3.81; Q 4.17; R 4.13; S 3.09; T 3.76; V 3.1; W 2.62; Y 3.01
T22: A 3.99; C 4.41; D 4.61; E 4.53; F 3.36; G 3.53; H 3.37; I 3.38; K 3.79; L 3.66; M 3.45; N 3.9; P 3.13; Q 4.21; R 3.09; S 4.04; V 3.35; W 3.78; Y 3.5
S23: A 4.35; C 4.2; D 5; E 4.42; F 3.22; G 3.75; H 3.6; I 3.53; K 4.18; L 3.86; M 4.05; N 4.1; P 3.52; Q 4.31; R 2.95; T 4.13; V 3.07; W 3.43; Y 3.09
R24: A 4.81; C 4.33; D 5.19; E 5.04; F 4.78; G 5.14; H 4.75; I 4.39; K 4.75; L 4.81; M 4.6; N 4.96; P 4.81; Q 5.08; S 5.27; T 4.97; V 4.34; W 3.05; Y 4.25
